Assay: label from the status in PepcDB records
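Further: failed if final PepcDB status was selected cloned or expressed and not failed if soluble or beyond.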

Sequence | protein production
MSLSDLLYEIQDKVGLLTMNRISKHNAFDNQLLTEMRIRLDSAINDTNVRVIVLKANGKHFSAGADLTWMQSMANFTEEENLEDSLVLGNLMYSISQSPKPTIAMVQGAAFGGGAGLAAACDIAIASTSARFCFSEVKLGLIPAVISPYVVRAIGERAAKMLFMSAEVFDATRAYSLNLVQHCVPDDTLLEFTLKYASQISNNAPEAVKNSKQLAQYVANKKIDEELVRYTASLIAHKRVSDEGQEGLKAFLNKEIPNWNEGHHHHHH | not failed
MTKAIQSSVQVGELATGQALTVPIYSFMGSENSAPSVYIQANVHGAEVQGNAVIYQLMTLLEGYQVLGDITLAPLANPLGINQKSGEFTLGRFDPITGVNWNREYFDHNVDIQNWYAEHQHLTNSELFCAYRSMLVETCQARLTHSFGISTGHRLAVNLQAMAHQADIVLDLHTGPKSCKHLYCPEYDIDAARFFSIPYTLIIPNSFGGAMDEATFCPWWQLTEYATSQGREFSVPVSAFTLELASQERIDLADALEDAKGILAYLSHRGVIAEKVNPASMERFGCYLKDYKKFHAPKAGLIEYCASVGEPLTAGKPLVNILRIDLYGSEQAYQAISLPMDCVPILHFASASVLQGTELYKVMTNVFPLQPS | not failed
MLDKNKFIQINLVPCHFCYSFLSYASILEAIMKFKNILVVLNPSNEKQYALARAVRLVEEQKNETKVKITALLSVYDLSYEMSALLSSEERSEMHQQVIEKHRHAVQYYLDKYANPEIELQSHIVWNSNEADAINEEVENNNYDLVVKYTKDEEKLTSLIFTPIDWQLLRKCPIPVLMVRDGDWKHPRRILVAVNVSGEQEYQDEFNQELVETGISLAENLNRGNVHLVAAYPSAPINMAIDLPEFNTSGYENGIRGQHLINMKALRQKFGIDEDHTHVREGFPEEVIPEVAKEIEAELVILGTVGRTGLSAALLGNTAEHVISKLSCNLLGIKPSKKDD | failed
MKLIASNKKAYFDYEILETLEAGLALLGSEVKALRQTRVNLKDNFVKIIKGEAFLFGVHISYLDTIHAYYKPNERRERKLLLHKKQLLKWQIEASKERLSIVGLKLYFNQRNRAKIQIALVKGKRLHDKRQSLKEKALNKEILADLKHHFKG | failed
MPVAEQPYHHGSLRRVLLARAESTLEKDGVDGLSLRQLAREAGVSHAAPSKHFRDRQALLDALAESGFLRLTAALERAVEEAESHARARFAALAGAYVSFALAHRELLALMYGNKHAPGAASQVVEAGHASMDLTVRIVTEAQAAGDIGPGDASRIALVAFATFHGIATLAAGGMLDGAPVDEVVTAASDTFWRGLAQA | not failed
MKHIQINPSILSADLARLGDDVKAVLAAGADNIHFDVMDNHYVPNLTFGPMVLKALRDYGITAGMDVHLMVKPVDALIESFAKAGATSIVFHPEASEHIDRSLQLIKSFGIQAGLALNPATGIDCLKYVESNIDRVLIMSVNPGFGGQKFIPAMLDKAKEISKWISSTDRDILLEIDGGVNPYNIAEIAVCGVNAFVAGSAIFNSDSYKQTIDKMRDELNKV | not failed
MNKWLDLILKIHVHPFLWIIAALGLLTGHMKALLCLLLIVLIHELGHAALAVFFSWRIKRVFLLPFGGTVEVEEHGNRPLKEEFAVIIAGPLQHIWLQFAAWMLAEVSVIHQHTFELFTFYNLSILFVNLLPIWPLDGGKLLFLLFSKQLPFQKAHRLNLKTSLCFCLLLGCWVLFVIPLQISAWVLFVFLAVSLFEEYRQRHYIHVRFLLERYYGKNRELEKLLPLTVKAEDKVYHVMAEFKRGCKHPIIIEKSGQKLSQLDENEVLHAYFADKRTNSSMEELLLPY | failed
MRSSSSSSVLPSLPNARLRRPAVWIAFLAVAALSLTGCDLFGSNDDEGRRVTTDVVIANSGNFSAQDGSLTLYNPTASTATLKDIEVAFINSLAQHNGRLFVVDNTTSDNAGKITTFDTEQLGPVDQITNLQRSPRRIAFPEENKGYVTNLSRDLDDAPSNFVPDTSTVSVVDLEADSVTKRVDVGRSPEGIAAVARKAFVANSADGTLSVLDAGADTVNTTLSLPDCANPKSVFVDDENEVAVVCQGGGEQASEVLFLSPIEETIKDRVELGAPIGSANGSQSAYYSEGAEELYTISGSQAFGGNGTGEIFRIDTNANALDATLEIPQDDGLIGITAVGYDDVTQDLYVTRLPVGAGGFPLFSANGTALVLDRQGNEVTRFETGNSPGHITFLGDRQ | failed
MLLYIHVPFCRRKCRYCAFHSLPLIGEGGTSPAPEALQTPHADTAITAGPTAASTALAGVAPVTPSAQAISGQDGHTSTKGHGVPPESPPGPTANAAGMSGGIAGIVDRAGGAMRSCTPAEALPAYVETLFSELALWGDRLGNATVETIFFGGGTPSLLPPHVVAAILDRVHRTFSVAPGAEISLEANPESLSNRQQARGLYDAGVNRLSLGVQALDDALLHLMGRPHRARDAIRAFNAARDAGFTNISLDFIWGLPGQRLRQWLDQLREVVRLRPEHLSCYGLTLEEGTPLTADVESGSIALPVEREQAAMFMQGAERLEEAGYLQYEISNFARMGFQCHHNLGYWEGRDYLGLGPSATSTIDGLRWTNPYDHGAWHESVRTGRIGADAERLDLTVRVLELVMLRLRTTRGLRVKAYRELTGRDFLRDHKPLVHLLHRNGLVRIRDGYLRLTRNGMLVSNSILERFFERSETLLTLESTEKTHETRMAGPISGDTP | failed
MNFFTSPFSGIPLDQQVTNPNIIVGKHSYYSGYYHGHSFDDCVRYLHPERDDVDKLVIGSFCSIGSGAVFMMAGNQGHRSDWISTFPFFYQDNDNFADARDGFTRSGDTIIGHDVWIGTEAMIMPGVKIGHGAIIASRSVVTKDVAPYEVVGSNPAKHIKFRFSDVEIAMLLEMAWWNWPESWLKESMQSLCSSDIEGLYLNWQSKART | not failed
MRQFKTESKKLLDLMINSIYTNKEIFLRELISNASDAVDKLNFKSLQDPSVKIDQGDLAIRVSFDKDARTITISDNGIGMTAEELERNLGTIAHSGSEEFKTENAEQQGSDVDIIGQFGVGFYSAFMVASHVKVVSRAYGEDVAHVWESDGLEGYTIEDGERAEHGTDVILTLRENEKLDADGEAETYDRFLTEWGLKSLIQQYSNYVRYPIQMMVSKSRQKPKPEDAGDDYKPEYEDYQELETVNSMTPIWKKRSSDVEQKDYDEFYKSTFHDFDDPARTISFHAEGTLEYDALLFVPGRAPFDLYSKDYEKGLSLYSSNVLIMEKCDDLLPDYYNFVRGVVDSADVSLNISRETLQQNRQLKAIAKRVEKKITADLEDMRDNDREAYEKFFENFGRGLKYGIYSSYGMKADELADLLLFWSAKEQKMITLAEYAKGMPEDQKAIYYAAGDSRERLAKMPVVKGVLDRGYDVLLLTQDVDEFTFQAMREYVAADMPKIYEDDAAREAAEKAVADGAEPEVEDRHLELKNVATGDLDLATEDEKKEAEDATKENEDLFSAMKEALGDKVEKVAVSARLTDAPACITTEGPLSLEMEKVLQKGPEGAPDGMPKSQRVLELNAKHPVFDKLVAAQKAGDADKIKQYSGLLYDQALLVEGILPEDPVAFAAAVCNLM | failed
MVMARNRNSNQLASHGAQAALDQMKYEIAQEFGVQLGADTSSRANGSVGGEITKRLVAMAEQQLGGGYTRLEHHHHHH | not failed
MGREFIPLFEDWAATYDQTVQGLDIQYKEAFRGYDHILDAIVRKSGTHVLEFGPGTGNLTAKLLDAGKTVFGIEPSPAMRKLASDKLSGRTEIVDGDFLTFPEPPFQADTIVSSYAFHHLTDEEKRAAIKQYGKYLHLHDKIVFADTVFENAQAYQQAIDKARSQGFYQLANDLETEHYPTLDALKEMFTAEGFAVRFTQQNDFVWIMEAIKRLEHHHHHH | failed
MKLAYWMYAGPAHIGTLRISSSFRNVHAIMHAPLGDDYFNVMRSMLERERNFTPVTTSVVDRNVLARGSQEKVIDNILRKDTEERPDLIVLTPTCTSSILQEDLQNFVERAKESAQCDVLLADVNHYRVNELQAADRTLEQIVRFYLDRAQRQGTLPSQRTEQPSVNILGMTTLGFHNRHDTTELQRLMADLGITVNAVIPAGASVEELQHLPRAWFNLVPYREVGLLTAQYLQDTFDQPMVAIAPMGITATADCIRQIQQVLNQQGAAVDFEPFIDRQTRFASEAAWFSHSIDCQNLTGKRAVVFGDNTHAAAFTKILSREMGIHVVLAGTYCKHDADWFEAEVAGYCDRVLISDDHNAIADAIAELEPAAIFGTQMERHVGKRLNIPCGVIAAPVHIQNFPVGYRPFVGYEGANQIVDLVYNSFTLGMEDHLLEIFGGHDTKEVLTKTVSAGSDLDWKPDGLTELNRIPGFVRGKVKRNTEKYAREQGLTAITAEVLYAAKEALGALEHHHHHH | not failed
MVVSIITPLYKVEDFIARCADSLFRQSYTEIEYIFVDDCSSDRSVEVLLQVAERYPQLQQQIRILHHESNRGVAAARETGLAAATGEYVYWVDADDWIEPDAIEKMVVRSEQGQKDIIACGWYLCFRQNERRMPMPCYADAETALRGMLSGTMRWNLWLYMIKRDLYLMNDIHFMEGENVGEDMLVLIKLFSHAKSIGFVKDAFYHYVKQNENSLTRLSPEQQMKRQMRNLQAATDYLVTHFIGKYEKEINFFKLNAKMPLLISNDKNSYRTWTACFPEANKYIMANKRQTLRMRLVQLMAAKRQFWLVELYYQLVFKFVYGILYK | failed
MEPSSLVLALEQTSEVLGKEPIVPFAILLVVLLVVPILFERLRLPGIVGLVLSGLVLGPSGWNLFHTKSPMISLLSDIGLVYLMFVAGLEVDLELWRRRQRRALGFGCVSFTIPLLIGTLVGRFFHFGWNTSVLIGSLLTSYSLLAYPIINRLGVISNQAVTITIGATVFTDISALIVLAICIPAFQMGMSNIYQILSLLGWLIIYSIVILVGFDWAGREFFRRSGDDEGNKFLFVLLTVFLAVVVAQLIGIEKILGAFLAGLAVNEAVGEGPVKEKIVFVGSVLFIPIFFINLGLLIDLPGLVNSLFTLQLTSLIVISLVASKFIAAWLAKVFYGYSWQEMLTMWSLSIPQVGTTLAATFVGYHTGLLSSAVLTSVVILMLITATLGPLITSRTARALTTVSITESVDANLPEPQVIETQNGNFTIVVPIYNPHTQQYLVEMAALLAHQAQGRIIPLTIATAAAHMDAPQLESTLQRSERLLAKATSQSQALGVAASPLLRIDDASAPGISRAAREQKANLIVMGWGKRTGLRARLFGNVIDNVLWSSHCPVAVTRLVESPKKIQRILVPVENLITPTLQPVQFAQMLAEANQAQVTVLNVCDRRTSSSKIASRRSQLALLVSKLALPNSPEVQIIAHENAAQAILQAARLYDLVVLPFIRNRTSPGGLALSDVTTQLASQLTCSIVMLGEPQRLQTGNITSVAPNTTTAV | failed
QTQVNAEKKIQVEFVSANPTSSLHVGHGRGAAYGMTVANLLEATGAQVDREYYVNDAGRQMDILATSTYLRYLELLGQPLVFPKNAYQGDYVKEIAQSIIDKDGDAYVRSVADVYRNVPEDVQYAEELDSEGNKVVLSGDKEKHIDGLIANSQQLIGQGYRVFHQAALKAILDDIKDDLADFGVTFDQWFSEASLTQKIDEALQTLDQRGYLYEKEGNIWFKSTKFGDEKDRVVKRRNGQTTYFASDIAYHLDKLQRGYTHIVDIWGSDHHGYIARVKAAIDAMGYDSSKLTVLLVQFVSLWRGGEMVQMSSRSGQFVTLRELRQEVGNDAARFYYVMRKSEQHIDFDLDLAVSQSKDNAVYYIQYAHARICRMLEKANS | failed
MPAQTNLKPVLTAAQVNVLMETVYPQLNEQFKYYEAIDVFPGGCTVRLNAGERHLRPGGTVSGPSLFTLADIGGYVCVLSHAGPDALSVTVNLDINFVRKAEAGPIDGHCRILKLGKSLMVFAIDIVAGPEGQTIAHATGTYSIPPKRIGDVVK | failed
MINLVEFNLFLDLLGSALLLSLPWLLLGIIISSTFLIWTDEQKWVANFPRNRLLSSLVGSALGFLLPLGAFGSVPLVRRLLLQGAPIPLAVSFLVAAPTLNIFAIVRVLSSRQSQYGLIFLCISCSWLMAIVMGLVFSTYRLARQQAEDEGETALLNIPLLRSGALIILQSSMEASPRQGGLVFASGVNPVADFSWRQKLHLFGRNIIEEFQEFGGVLVIGTAIACGIVFFLPQAWLLQWAGLGPVRQTVLMMGWSFILPLGNFSNPDLLAPLGEQLWRGSMVAFLLWGSLFNLQTIGLWLVTLRLRPLSYLVVLVGLSVFLFAMVTNYYLS | failed
